This assay deals with FZD1/2/4/5/7/8. The experiment in a line: cell-based or functional assay.

In patent US20260250398A1 one finds TOPFLASH % Wnt Maxima, TOPFLASH EC50 and TOPFLASH Maximal Signal (% Wnt3a maxima) (% Wnt3a maxima) data, which are given here for 3 molecules.

B1: CT0003 (Table 5: FZD Diabody-Fc-LRP scFv; paratopes 5016; 2539, 2542) (bispecific antibody)
chain 1: MNLLLILTFVAAAVAEFEVQLVESGGGLVQPGGSLRLSCAASGFNISSYYIHWVRQAPGKGLEWVASIYSSYGYTSYADSVKGRFTISADTSKNTAYLQMNSLRAEDTAVYYCARTVRGSKKPYFSGWAMDYWGQGTLVTVSSGGGGSDIQMTQSPSSLSASVGDRVTITCRASQSVSSAVAWYQQKPGKAPKLLIYSASSLYSGVPSRFSGSRSGTDFTLTISSLQPEDFATYYCQQYSWGPFTFGQGTKVEIKLEDKTHTKVEPKSSDKTHNCPPCPAPELLGGPSVFLFPPKPKDTLMISRTPEVTCVVVDVSHEDPEVKFNWYVDGVEVHNAKTKPREEQYNSTYRVVSVLTVLHQDWLNGKEYKCKVSNKALPAPIEKTISKAKGQPREPQVYTLPPIRELMTSNQVSLSCAVKGFYPSDIAVEWESNGQPENNYKTTPPVLDSDGSFFLVSKLTVDKSRWQQGNVFSCSVMHEALHNHYTQKSLSLSPGKSGSETPGTSESATPESGGGEVQLVESGGGLVQPGGSLRLSCAASGFNIHSSSIHWVRQAPGKGLEWVAATYSSFGSITYADSVKGRFTISADTSKNTAYLQMNSLRAEDTAVYYCARYHHPFGYALDYWGQGTLVTVSSGTTAASGSSGGSSSGADIQMTQSPSSLSASVGDRVTITCRASQSVSSAVAWYQQKPGKAPKLLIYSASSLYSGVPSRFSGSRSGTDFTLTISSLQPEDFATYYCQQGVYLFTFGQGTKVEIK
chain 2: MNLLLILTFVAAAVAEFEVQLVESGGGLVQPGGSLRLSCAASGFNISYSSIHWVRQAPGKGLEWVAYISSYYGYTYYADSVKGRFTISADTSKNTAYLQMNSLRAEDTAVYYCARAHYFPWAGAMDYWGQGTLVTVSSGGGGDIQMTQSPSSLSASVGDRVTITCRASQSVSSAVAWYQQKPGKAPKLLIYSASSLYSGVPSRFSGSRSGTDFTLTISSLQPEDFATYYCQQYYWPITFGQGTKVEIKLEDKTHTKVEPKTSDKTHTCPPCPAPELLGGPSVFLFPPKPKDTLMISRTPEVTCVVVDVSHEDPEVKFNWYVDGVEVHNAKTKPREEQYNSTYRVVSVLTVLHQDWLNGKEYKCKVSNKALPAPIEKTISKAKGQPREPMVFDLPPSREEMTKNQVSLWCMVKGFYPSDIAVEWESNGQPENNYKTTPPVLDSDGSFFLYSKLTVDKSRWQQGNVFSCSVMHEALHNHYTQKSLSLSPGKSGSETPGTSESATPESGGGEVQLVESGGGLVQPGGSLRLSCAASGFNIHSSSIHWVRQAPGKGLEWVAATYSSFGSITYADSVKGRFTISADTSKNTAYLQMNSLRAEDTAVYYCARYHHPFGYALDYWGQGTLVTVSSGTTAASGSSGGSSSGADIQMTQSPSSLSASVGDRVTITCRASQSVSSAVAWYQQKPGKAPKLLIYSASSLYSGVPSRFSGSRSGTDFTLTISSLQPEDFATYYCQQGVYLFTFGQGTKVEIK
On to B1, for which the TOPFLASH % Wnt Maxima is 42 % Wnt Maxima and the TOPFLASH EC50 is 0.4 nM.

B2: Fab-Dia (paratopes 5016; 2540/2542) (bispecific antibody)
heavy: EVQLVESGGGLVQPGGSLRLSCAASGFNIHSSSIHWVRQAPGKGLEWVAATYSSFGSITYADSVKGRFTISADTSKNTAYLQMNSLRAEDTAVYYCARYHHPFGYALDYWGQGTLVTVSSASTKGPSVFPLAPSSKSTSGGTAALGCLVKDYFPEPVTVSWNSGALTSGVHTFPAVLQSSGLYSLSSVVTVPSSSLGTQTYICNVNHKPSNTKVDKKVEPKSCDKTHTGGSGGEVQLVESGGGLVQPGGSLRLSCAASGFTISYSSIHWVRQAPGKGLEWVASISPYYGYTYYADSVKGRFTISADTSKNTAYLQMNSLRAEDTAVYYCARSSYFPWFSAMDYWGQGTLVTVSSGGGGSDIQMTQSPSSLSASVGDRVTITCRASQSVSSAVAWYQQKPGKAPKLLIYSASSLYSGVPSRFSGSRSGTDFTLTISSLQPEDFATYYCQQYYWPITFGQGTKVEIK
light: DIQMTQSPSSLSASVGDRVTITCRASQSVSSAVAWYQQKPGKAPKLLIYSASSLYSGVPSRFSGSRSGTDFTLTISSLQPEDFATYYCQQGVYLFTFGQGTKVEIKRTVAAPSVFIFPPSDEQLKSGTASVVCLLNNFYPREAKVQWKVDNALQSGNSQESVTEQDSKDSTYSLSSTLTLSKADYEKHKVYACEVTHQGLSSPVTKSFNRGECGGGGSEVQLVESGGGLVQPGGSLRLSCAASGFTISSYYIHWVRQAPGKGLEWVASIYSSYGYTSYADSVKGRFTISADTSKNTAYLQMNSLRAEDTAVYYCARTVRGSKKPYFSGWAMDYWGQGTLVTVSSGGGGSDIQMTQSPSSLSASVGDRVTITCRASQSVSSAVAWYQQKPGKAPKLLIYSASSLYSGVPSRFSGSRSGTDFTLTISSLQPEDFATYYCQQYYFLITFGQGTKVEIK
In the case of B2, the TOPFLASH EC50 is 0.4 nM and the TOPFLASH Maximal Signal (% Wnt3a maxima) (% Wnt3a maxima) was 42.

B3: CH3 (Dia-CH3-Dia; paratopes 5019; 2539) (bispecific antibody)
chain: MNLLLILTFVAAAVAEFEVQLVESGGGLVQPGGSLRLSCAASGFNIGSSSIHWVRQAPGKGLEWVASIYSAFASTSYADSVKGRFTISADTSKNTAYLQMNSLRAEDTAVYYCARYHFPFGFALDYWGQGTLVTVSSGGGGSDIQMTQSPSSLSASVGDRVTITCRASQSVSSAVAWYQQKPGKAPKLLIYSASSLYSGVPSRFSGSRSGTDFTLTISSLQPEDFATYYCQQGVYLFTFGQGTKVEIKDKTHTKVEPKTSDKTHTCPPCPGQPREPQVYTLPPSREEMTKNQVSLTCLVKGFYPSDIAVEWESNGQPENNYKTTPPVLDSDGSFFLYSKLTVDKSRWQQGNVFSCSVMHEALHNHYTQKSLSLSPGKGTTAASGSSGGSSSGAGRTEVQLVESGGGLVQPGGSLRLSCAASGFNISYSSIHWVRQAPGKGLEWVAYISSYYGYTYYADSVKGRFTISADTSKNTAYLQMNSLRAEDTAVYYCARAHYFPWAGAMDYWGQGTLVTVSSGGGGSDIQMTQSPSSLSASVGDRVTITCRASQSVSSAVAWYQQKPGKAPKLLIYSASSLYSGVPSRFSGSRSGTDFTLTISSLQPEDFATYYCQQYSWGPFTFGQGTKVEIK
B3 showed a TOPFLASH Maximal Signal (% Wnt3a maxima) (% Wnt3a maxima) of 22.
